Measured values: US20240067738A1
Values joined by “and” are separate entries in the source; they are usually repeats but may differ in a detail not shown here. Identical values can stand only once.

B1: wild-type canine IgG-B Fc polypeptide (SASA tag) (protein, part only; not given: SASA tag, not shown: another chain or arm of the molecule; small tags and cut ends)
Fc: PAPEMLGGPSVFIFPPKPKDTLLIARTPEVTCVVVDLDPEDPEVQISWFVDGKQMQTAKTQPREEQFNGTYRVVSVLPIGHQDWLKGKQFTCKVNNKALPSPIERTISKARGQAHQPSVYVLPPSREELSKNTVSLTCLIKDFFPPDIDVEWQSNGQQEPESKYRTTPPQLDEDGSYFLYSKLSVDKSRWQRGDTFICAVMHEALHNHYTQESLSHSPGK
B2: variant canine IgG-B Fc polypeptide L(23)M (SASA tag) (protein, part only; not given: SASA tag, not shown: another chain or arm of the molecule; small tags and cut ends)
Fc: PAPEMLGGPSVFIFPPKPKDTLMIARTPEVTCVVVDLDPEDPEVQISWFVDGKQMQTAKTQPREEQFNGTYRVVSVLPIGHQDWLKGKQFTCKVNNKALPSPIERTISKARGQAHQPSVYVLPPSREELSKNTVSLTCLIKDFFPPDIDVEWQSNGQQEPESKYRTTPPQLDEDGSYFLYSKLSVDKSRWQRGDTFICAVMHEALHNHYTQESLSHSPGK
B3: variant canine IgG-B Fc polypeptide L(23)S (SASA tag) (protein, part only; not given: SASA tag, not shown: another chain or arm of the molecule; small tags and cut ends)
Fc: PAPEMLGGPSVFIFPPKPKDTLSIARTPEVTCVVVDLDPEDPEVQISWFVDGKQMQTAKTQPREEQFNGTYRVVSVLPIGHQDWLKGKQFTCKVNNKALPSPIERTISKARGQAHQPSVYVLPPSREELSKNTVSLTCLIKDFFPPDIDVEWQSNGQQEPESKYRTTPPQLDEDGSYFLYSKLSVDKSRWQRGDTFICAVMHEALHNHYTQESLSHSPGK
B4: variant canine IgG-B Fc polypeptide L(23)F (SASA tag) (protein, part only; not given: SASA tag, not shown: another chain or arm of the molecule; small tags and cut ends)
Fc: PAPEMLGGPSVFIFPPKPKDTLFIARTPEVTCVVVDLDPEDPEVQISWFVDGKQMQTAKTQPREEQFNGTYRVVSVLPIGHQDWLKGKQFTCKVNNKALPSPIERTISKARGQAHQPSVYVLPPSREELSKNTVSLTCLIKDFFPPDIDVEWQSNGQQEPESKYRTTPPQLDEDGSYFLYSKLSVDKSRWQRGDTFICAVMHEALHNHYTQESLSHSPGK
B5: variant canine IgG-B Fc polypeptide L(23)Y (SASA tag) (protein, part only; not given: SASA tag, not shown: another chain or arm of the molecule; small tags and cut ends)
Fc: PAPEMLGGPSVFIFPPKPKDTLYIARTPEVTCVVVDLDPEDPEVQISWFVDGKQMQTAKTQPREEQFNGTYRVVSVLPIGHQDWLKGKQFTCKVNNKALPSPIERTISKARGQAHQPSVYVLPPSREELSKNTVSLTCLIKDFFPPDIDVEWQSNGQQEPESKYRTTPPQLDEDGSYFLYSKLSVDKSRWQRGDTFICAVMHEALHNHYTQESLSHSPGK

Target: canine FcRn with a poly-His tag and canine B2M heterodimer complex (canine)
Assay: SPR (Biacore T200), biotinylated canine FcRn/B2M complex on chip, Fc as analyte, pH 6.0

Sequence of canine FcRn with a poly-His tag and canine B2M heterodimer complex (canine) (chain, as listed by the source limits assumed, chain 1 of 2): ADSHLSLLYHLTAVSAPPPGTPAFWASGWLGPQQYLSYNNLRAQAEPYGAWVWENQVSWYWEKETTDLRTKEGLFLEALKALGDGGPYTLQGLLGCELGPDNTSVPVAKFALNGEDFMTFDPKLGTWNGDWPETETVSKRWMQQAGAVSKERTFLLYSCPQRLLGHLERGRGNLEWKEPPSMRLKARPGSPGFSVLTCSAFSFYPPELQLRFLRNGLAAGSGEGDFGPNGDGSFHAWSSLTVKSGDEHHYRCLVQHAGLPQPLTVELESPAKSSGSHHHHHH
Sequence of canine FcRn with a poly-His tag and canine B2M heterodimer complex (canine) (b2m, as listed by the source limits assumed, chain 2 of 2): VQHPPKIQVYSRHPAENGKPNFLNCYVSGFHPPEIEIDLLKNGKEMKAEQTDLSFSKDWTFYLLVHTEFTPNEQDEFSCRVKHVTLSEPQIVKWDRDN

Binder | koff
B1 | 0.122 s⁻¹
B2 | 0.126 s⁻¹
B3 | 0.241 s⁻¹
B4 | 0.0631 s⁻¹ and 0.0847 s⁻¹
B5 | 0.0138 s⁻¹
